This assay concerns the target NaV1.5 (main cardiac voltage-gated sodium channel) (mouse (endogenous in heart)) (UniProt Q9JJV9). In words: co-IP.
Chain of UniProt Q9JJV9 (Q9JJV9 whole entry): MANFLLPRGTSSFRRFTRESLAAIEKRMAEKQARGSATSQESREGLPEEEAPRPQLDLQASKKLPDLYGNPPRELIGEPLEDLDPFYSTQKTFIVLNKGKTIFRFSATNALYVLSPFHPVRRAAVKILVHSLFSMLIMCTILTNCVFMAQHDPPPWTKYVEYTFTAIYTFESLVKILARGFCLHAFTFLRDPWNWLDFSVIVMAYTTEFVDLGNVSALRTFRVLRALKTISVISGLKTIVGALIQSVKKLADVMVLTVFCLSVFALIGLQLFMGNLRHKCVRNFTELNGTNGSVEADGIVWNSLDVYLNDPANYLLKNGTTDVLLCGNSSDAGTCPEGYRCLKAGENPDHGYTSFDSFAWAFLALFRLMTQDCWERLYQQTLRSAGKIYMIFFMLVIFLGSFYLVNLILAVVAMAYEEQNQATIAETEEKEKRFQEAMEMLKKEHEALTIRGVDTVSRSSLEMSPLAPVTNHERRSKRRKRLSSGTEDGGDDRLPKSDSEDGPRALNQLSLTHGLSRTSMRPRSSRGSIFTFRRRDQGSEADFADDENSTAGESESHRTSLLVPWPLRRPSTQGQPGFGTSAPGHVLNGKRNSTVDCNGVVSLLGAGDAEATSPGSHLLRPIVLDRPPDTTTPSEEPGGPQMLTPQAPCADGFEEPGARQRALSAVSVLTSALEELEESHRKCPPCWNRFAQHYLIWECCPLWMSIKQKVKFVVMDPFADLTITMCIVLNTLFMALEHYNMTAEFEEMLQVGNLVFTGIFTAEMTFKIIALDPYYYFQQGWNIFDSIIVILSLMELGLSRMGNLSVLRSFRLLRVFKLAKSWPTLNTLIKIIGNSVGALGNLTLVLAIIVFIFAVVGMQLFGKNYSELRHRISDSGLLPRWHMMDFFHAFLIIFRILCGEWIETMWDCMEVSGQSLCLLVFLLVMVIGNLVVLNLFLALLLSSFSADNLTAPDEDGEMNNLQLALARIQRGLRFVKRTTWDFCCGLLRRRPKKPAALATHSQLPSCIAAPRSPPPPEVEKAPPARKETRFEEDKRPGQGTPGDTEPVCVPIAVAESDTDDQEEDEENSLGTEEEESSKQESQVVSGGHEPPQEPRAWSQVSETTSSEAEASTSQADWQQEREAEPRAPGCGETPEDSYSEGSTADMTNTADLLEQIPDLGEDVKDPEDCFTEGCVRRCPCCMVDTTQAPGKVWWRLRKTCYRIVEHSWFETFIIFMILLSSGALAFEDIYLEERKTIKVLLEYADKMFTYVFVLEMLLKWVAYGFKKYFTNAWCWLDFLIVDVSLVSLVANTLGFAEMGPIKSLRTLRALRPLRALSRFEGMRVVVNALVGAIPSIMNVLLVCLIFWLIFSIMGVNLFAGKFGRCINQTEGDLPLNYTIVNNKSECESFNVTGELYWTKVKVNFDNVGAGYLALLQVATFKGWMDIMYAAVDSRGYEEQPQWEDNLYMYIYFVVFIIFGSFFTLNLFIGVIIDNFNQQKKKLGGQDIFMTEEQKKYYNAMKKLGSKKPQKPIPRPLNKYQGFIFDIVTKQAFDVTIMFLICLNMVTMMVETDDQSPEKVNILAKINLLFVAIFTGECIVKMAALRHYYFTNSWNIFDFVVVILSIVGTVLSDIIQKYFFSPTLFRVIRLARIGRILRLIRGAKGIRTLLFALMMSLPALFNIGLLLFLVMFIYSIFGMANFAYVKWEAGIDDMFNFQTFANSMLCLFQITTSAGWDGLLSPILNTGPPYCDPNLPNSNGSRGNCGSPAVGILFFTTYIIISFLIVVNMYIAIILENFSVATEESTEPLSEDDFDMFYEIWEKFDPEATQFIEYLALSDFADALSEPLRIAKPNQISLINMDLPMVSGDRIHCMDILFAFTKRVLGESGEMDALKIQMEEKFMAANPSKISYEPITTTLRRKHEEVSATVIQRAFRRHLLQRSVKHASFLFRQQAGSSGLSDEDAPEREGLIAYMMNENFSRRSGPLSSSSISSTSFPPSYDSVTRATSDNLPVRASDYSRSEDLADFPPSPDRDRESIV

The substance “FGF13 (fibroblast growth factor homologous factor 13) (from UniProt P70377 1-245) (natural protein)” showed a percent of FGF13 depleted from the lysate by immunoprecipitation of NaV1.5 of 35%.

The values are drawn from paper PMC12903045.
